Reference: US20190351049A1 (Regeneron, published 2019)

Columns and labels:
[1] = biological target: T1, MERS RBD-hFc (MERS-CoV (isolate EMC/2012)); experiment: SPR Biacore, captured mAb, 25 C
[2] = biological target: T1, MERS RBD-hFc; experiment: ELISA on coated MERS RBD-hFc, hybridoma supernatant 1:50, absorbance at 450 nm
[3] = biological target: T1, MERS RBD-hFc; experiment: SPR (Biacore), hybridoma supernatant antibody captured, MERS RBD-hFc as analyte
[4] = biological target: T1, MERS RBD-hFc; experiment: SPR Biacore, captured mAb, 37 C

| Binder | Kd [1] | koff [1] | kon [1] | t1/2 [1] | ELISA Binding [2] | Kd [3] | t½ [3] | Kd [4] | koff [4] | kon [4] | t1/2 [4] |
| --- | --- | --- | --- | --- | --- | --- | --- | --- | --- | --- | --- |
| H2aM15279N (antibody, V domains shown) VH: EVQLLESGGGLVQTGGSLRLSCAASGFTFSNYAMSWVRQAPGKGLEWVSAISDRGGSIYYADSVKGRFTISRDNSKNTKYLQMDSLRAEDTAVYYCAQDRGFGVFDYWGQGTLVTVSS VL: DIQMTQSPSSLSASVGDRVTITCQASQDIGNYLNWFQQRPGKAPNLLIYGASNLETGVPSRFSGGGSGTDFTFTISSLQPEDIATYFCQQYDNLPFTFGPGTKVEIK | 0.102 nM | 8.91e-05 s⁻¹ | 870000 M⁻¹ s⁻¹ | 2.17 h | 2.18 | 0.266 nM | 1.6 h | 0.32 nM | 0.000445 s⁻¹ | 1.39e+06 M⁻¹ s⁻¹ | 0.433 h |
| H2bM15292N (antibody, V domains shown) VH: QVQLVQSGAEVKKPGSSVKVSCKASGGTFNNYAISWVRQAPGQGLEWMGGIIPFFGTTNYAQKFQDRVTITSDDSTITAYMELSRLRSEDTAVYYCARDEPRRDGYNYYHYYYMDVWGQGTTVTVSS VL: DIQMTQSPSSLSASVGDRVTITCRASQSINSYLNWYQQKPGKAPNLLIYAASSLQSGVPSRFSGSGSGTDFTLTISSLHPEDFATYYCQQSYSTPPITFGQGTRLEIK | 0.34 nM | 0.000155 s⁻¹ | 457000 M⁻¹ s⁻¹ | 1.25 h | 2.78 | 0.593 nM | 1.13 h | 0.963 nM | 0.000524 s⁻¹ | 544000 M⁻¹ s⁻¹ | 0.367 h |
| H1M15267N (antibody, V domains shown) VH: QVQLQESGPGLVKPSETLSLTCTVSGGSISSYYWSWIRQPPGKGLEWIGYIYYSGSPNYNPSLKSRVTISVDTSKNQFSLKLTSVTAADTAVYYCARSLNWGPPFDYWGQGTLVTVSS VL: not shown | 0.181 nM | 0.000153 s⁻¹ | 843000 M⁻¹ s⁻¹ | 1.25 h | 2.62 | 0.328 nM | 1.57 h | 0.314 nM | 0.000745 s⁻¹ | 2.37e+06 M⁻¹ s⁻¹ | 0.267 h |
| H1M15289N (antibody, V domains shown) VH: QVQLQESGPGLVKPSETLSLTCTVSGGSISSYYWSWIRQPPGKGLEWIGYIYYSGSANYNPSLKSRVTISVDTSKNQFSLKLSSVTAADTAVYYCVRDRDLLLDHWGQGTLVTVSS VL: EIVMTQSPATLSVSPGKRATLSCRASQSVSSNLAWYQQKPGQAPRLLIYGASTRTTGFPARFSGSGSGTDFTLTISSLQSEDFAVYYCQQYNNWPYTFGQGTMLEIK | 0.21 nM | 4.41e-05 s⁻¹ | 210000 M⁻¹ s⁻¹ | 4.37 h | 2.73 | 0.669 nM | ≥ 1.92 h | 0.275 nM | 0.000126 s⁻¹ | 459000 M⁻¹ s⁻¹ | 1.53 h |
| H1M15290N (antibody, V domains shown) VH: QVQLVQSGAEVKKPGSSVKVSCKASGGTFSTYAISWVRQAPGQGLEWMGGIIPFFGTANYAQKFQGRVTITTDESTSTAYMELSSLRSEDTAVYYCAREGTYYDSLTGYYTHYYRMDVWGQGTTVTVSS VL: not shown | 0.438 nM | 0.000211 s⁻¹ | 482000 M⁻¹ s⁻¹ | 0.917 h | 2.76 | 0.778 nM | 1.34 h | 1.48 nM | 0.000984 s⁻¹ | 666000 M⁻¹ s⁻¹ | 0.2 h |
| H2aM15287N (antibody, V domains shown) VH: QLQLQESGPGLVKPSETLSLTCTVSGGSISSGNYYWGWIRQPPGKGLEWFGTIYYSGSTYYNPSLKSRVTISVDTSKNQFSLKLSSVTAADTAVYYCARRAAVGHFDYWGQGTLVTVSS VL: DIQMTQSPSTLSASVGDRVTITCRASQSISTWLAWYQQKPGKAPKLLIYEASSLESGVPSRFSGSGFGTEFTLTISRLQPDDFATYFCQQYNTYWTFGQGTKVEIK | 6.98 nM | 0.000442 s⁻¹ | 63300 M⁻¹ s⁻¹ | 0.433 h | 2.53 | 0.245 nM | ≥ 1.92 h | 10.9 nM | 0.00189 s⁻¹ | 174000 M⁻¹ s⁻¹ | 0.1 h |
